From PMC10904049

Experiments:
CaVβ4 = CaVβ4 (UniProt D4A055); assay: ITC; conditions: cited from earlier work
[1] = target: Cerulean-tagged CaVβ2B subunit (Cerulean-WT β2B); assay: flow cytometric FRET assay; conditions: HEK293 cells, read off a plot
[2] = FSK (10 µM) + Cal (100 nM), parent: est. 100
[3] = no FSK, no Cal, parent: est. 7.8

Rem2 (from UniProt Q9WTY2)
Kd (CaVβ4): 156 µM

Venus-Rad-CAAX (WT Rad with a C-terminal CAAX motif) (from UniProt O88667) F280A; F294A
Kd ([1]; + FSK + Cal): 21 ×10^3 | Kd ([1]; no FSK + Cal): 13 ×10^3

Venus-Rad-CAAX (WT Rad with a C-terminal CAAX motif) (from UniProt O88667) R208A; L235A
Kd [1]: 140 ×10^3

Venus-Rad-CAAX (WT Rad with a C-terminal CAAX motif) (from UniProt O88667) S256D; S272D; S289D; S298D; S300D; S305D
Kd ([1]; no FSK/Cal, parent: est. 9.3): 12 ×10^3

Venus-Rad-CAAX (WT Rad with a C-terminal CAAX motif) (from UniProt O88667) S272D; S289D; S298D; S300D
Kd ([1]; no FSK/Cal, parent: est. 9.3): 11 ×10^3

Venus-Rad-CAAX (WT Rad with a C-terminal CAAX motif) (from UniProt O88667) S272D; S300D
Kd ([1]; no FSK/Cal, parent: est. 9.3): 12 ×10^3

Venus-tagged WT Rad (from UniProt O88667) F280A; F294A
Kd ([1]; + FSK + Cal, parent: est. 100): 190 ×10^3 | Kd ([1]; no FSK + Cal, parent: est. 8): 41 ×10^3

Venus-tagged WT Rad (from UniProt O88667) R208A; L235A
Kd ([1]; parent: est. 8): 140 ×10^3

Venus-tagged WT Rad (from UniProt O88667) S25A; S38A
Kd [1, 2]: 44 ×10^3 | Kd [1, 3]: 7.5 ×10^3

Venus-tagged WT Rad (from UniProt O88667) S25A; S38A; S272A; S300A
Kd ([1]; Cal (100 nM), no FSK): 14 ×10^3 | Kd [1, 2]: 13 ×10^3 | Kd ([1]; FSK (10 µM), no Cal): 11 ×10^3 | Kd [1, 3]: 11 ×10^3

Venus-tagged WT Rad (from UniProt O88667) S25D; S38D
Kd ([1]; no FSK/Cal, parent: est. 7.8): 9.2 ×10^3

Venus-tagged WT Rad (from UniProt O88667) S25D; S38D; S272D; S300D
Kd ([1]; no FSK/Cal, parent: est. 7.8): 18 ×10^3

Venus-tagged WT Rad (from UniProt O88667) S25D; T26D; S38D; M39D
Kd ([1]; no FSK/Cal, parent: est. 7.8): 5.7 ×10^3

Venus-tagged WT Rad (from UniProt O88667) S256D; S272D; S289D; S298D; S300D; S305D
Kd ([1]; no FSK/Cal, parent: est. 7.8): 83 ×10^3

Venus-tagged WT Rad (from UniProt O88667) S272A; S300A
Kd [1, 2]: 17 ×10^3 | Kd [1, 3]: 6.3 ×10^3

Venus-tagged WT Rad (from UniProt O88667) S272D; S289D; S298D; S300D
Kd ([1]; no FSK/Cal, parent: est. 7.8): 57 ×10^3

Venus-tagged WT Rad (from UniProt O88667) S272D; S300D
Kd ([1]; no FSK/Cal, parent: est. 7.8): 18 ×10^3
